# Reference: PMC2234252 (The Journal of Cell Biology, 2008)
# Positions count from the first letter of the chain named. Numbers in names are those of the source.
# B1: hZW10 DI69AA (natural protein, human, UniProt O43264 1-779, looked up)
# chain: MASFVTEVLAHSGRLEKEDLGTRISRLTRRVEEIKGEVCNMISKKYSEFLPSMQSAQGLITQVDKLSEAADLLKSRIESEVRRDLHVSTGEFTDLKQQLERDSVVLSLLKQLQEFSTAIEEYNCALTEKKYVTGAQRLEEAQKCLKLLKSRKCFDLKILKSLSMELTIQKQNILYHLGEEWQKLIVWKFPPSKDTSSLESYLQTELHLYTEQSHKEEKTPMPPISSVLLAFSVLGELHSKLKSFGQMLLKYILRPLASCPSLHAVIESQPNIVIIRFESIMTNLEYPSPSEVFTKIRLVLEVLQKQLLDLPLDTDLENEKTSTVPLAEMLGDMIWEDLSECLIKNCLVYSIPTNSSKLQQYEEIIQSTEEFENALKEMRFLKGDTTDLLKYARNINSHFANKKCQDVIVAARNLMTSEIHNTVKIIPDSKINVPELPTPDEDNKLEVQKVSNTQYHEVMNLEPENTLDQHSFSLPTCRISESVKKLMELAYQTLLEATTSSDQCAVQLFYSVRNIFHLFHDVVPTYHKENLQKLPQLAAIHHNNCMYIAHHLLTLGHQFRLRLAPILCDGTATFVDLVPGFRRLGTECFLAQMRAQKGELLERLSSARNFSNMDDEENYSAASKAVRQVLHQLKRLGIVWQDVLPVNIYCKAMGTLLNTAISEVIGKITALEDISTEDGDRLYSLCKTVMDEGPQVFAPLSEESKNKKYQEEVPVYVPKWMPFKELMMMLQASLQEIGDRWADGKGPLAAAFSSSEVKALIRALFQNTERRAAALAKIK
# B2: hZW10 S55A (natural protein, human, UniProt O43264 1-779, looked up)
# chain: B1 chain with S55A, A69D, A70I
# B3: hZW10 SE67AA (natural protein, human, UniProt O43264 1-779, looked up)
# chain: B1 chain with S67A, E68A, A69D, A70I
# B4: hZW10 SE79AA (natural protein, human, UniProt O43264 1-779, looked up)
# chain: B1 chain with A69D, A70I, S79A, E80A
# B5: hZW10 GLI58AAA (natural protein, human, UniProt O43264 1-779, looked up)
# chain: B1 chain with G58A, L59A, I60A, A69D, A70I
# Molecular target: T1, hZwint-1 (human, UniProt O95229 1-277)
# T1 sequence (looked up): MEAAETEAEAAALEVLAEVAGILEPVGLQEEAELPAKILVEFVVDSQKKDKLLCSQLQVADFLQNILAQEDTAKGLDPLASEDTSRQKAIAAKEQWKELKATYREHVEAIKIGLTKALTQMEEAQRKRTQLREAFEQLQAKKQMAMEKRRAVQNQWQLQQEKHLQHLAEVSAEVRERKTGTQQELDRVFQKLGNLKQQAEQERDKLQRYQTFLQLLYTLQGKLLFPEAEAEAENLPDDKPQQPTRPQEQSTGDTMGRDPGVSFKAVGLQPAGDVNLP
# Assay: two-hybrid
row,Binder,β-galactosidase assay
1,B1,1.2
2,B2,449
3,B3,1.8
4,B4,131
5,B5,2.7
